Laboratory results: patent US20200101152A1 (INSERM INSTITUT NATIONAL DE LA SANTE ET DE LA RECHERCHE …, published 2020)

Tests used:
[1] = target: Rhesus macaque (NHP) CD40 ectodomain fused to cohesin (Rhesus macaque, UniProt F6SNI1 21-193); test: multiplexed bead-based equilibrium competition; NHP CD40 ectodomain beads; competitor mouse 12E12 mAb 10 ng/ml, PE anti-mouse IgG, Bio-Plex 200
[2] = target: T1, human CD40 ectodomain fused to cohesin (human, UniProt P25942 22-193); test: multiplexed bead-based equilibrium competition; human CD40 ectodomain beads; competitor mouse 12E12 mAb 10 ng/ml, PE anti-mouse IgG, Bio-Plex 200
T1 construct: also called human CD40 coated beads; not shown: cohesin carrier (GenBank CP000568.1 nt 3622666-3623172) and the Nhe I site linker
T1 sequence (P25942 22-193 limits assumed, form in doubt): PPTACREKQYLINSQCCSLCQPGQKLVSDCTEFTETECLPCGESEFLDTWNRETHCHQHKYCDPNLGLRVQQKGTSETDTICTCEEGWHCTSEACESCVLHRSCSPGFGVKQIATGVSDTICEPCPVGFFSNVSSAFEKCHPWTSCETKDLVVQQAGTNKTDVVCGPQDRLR

Rhesus macaque (NHP) CD40 ectodomain fused to cohesin, sequence (F6SNI1 entry or part of it): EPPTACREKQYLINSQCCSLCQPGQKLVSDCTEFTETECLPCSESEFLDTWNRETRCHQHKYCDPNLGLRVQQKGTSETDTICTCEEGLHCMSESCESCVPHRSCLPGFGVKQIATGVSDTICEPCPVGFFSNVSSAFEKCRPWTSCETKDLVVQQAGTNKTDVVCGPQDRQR

B1: humanized αCD40 (humanized anti-human CD40 12E12 recombinant human IgG4 mAb) (antibody, V domains shown)
VH: EVQLVESGGGLVQPGGSLKLSCATSGFTFSDYYMYWVRQAPGKGLEWVAYINSGGGSTYYPDTVKGRFTISRDNAKNTLYLQMNSLRAEDTAVYYCARRGLPFHAMDYWGQGTLVTVSS
VL: DIQMTQSPSSLSASVGDRVTITCSASQGISNYLNWYQQKPGKAVKLLIYYTSILHSGVPSRFSGSGSGTDYTLTISSLQPEDFATYYCQQFNKLPPTFGGGTKLEIKG
notes: also called hAnti-CD40VH3-LV-hIgG4HC
IC50 [1]: 0.83 pM | IC50 [2]: 1 pM
